B1: K1-18 IgG (antibody, V domains shown)
VH: EVQLVQSGAEVKKPGESLKISCKGSGYSFTNYWIGWVRQMPGKGLEWMGIIYPYDSDTRYSPSFEGQVTISADKSIRTAYLHWSSLKASDTAMYYCVRPRDGSYPYDAFDIWGQGTMVTVSS
VL: EIVLTQSPGTLSLSPGERATLSCRASQSVSNNYLAWYQQKPGQAPRLLIYGASSRATGIPDRFSGSGSGTDFTLTISRLEPEDFAVYYCQHCGSSLRAFGQGTKVEIKR
notes: Human IgG1 kappa purified from hetero-hybridoma supernatant; also called human monoclonal autoantibody K1-18
B2: K1-18 IgG (human monoclonal TSHR autoantibody with stimulating activity) (antibody, V domains shown)
VH: B1 VH
VL: B1 VL
notes: IgG1 kappa purified from hetero-hybridoma supernatant; also called stimulating MAb K1-18 (IgG1 kappa)
B3: K1-18 Fab (Fab, V domains shown)
VH: B1 VH
VL: B1 VL
notes: also called Fab of K1-18
B4: K1-18 Fab (Fab, V domains shown)
VH: B1 VH
VL: B1 VL
B5: K1-18 Fab (Fab, V domains shown)
VH: B1 VH
VL: B1 VL
B6: K1-70 IgG (antibody, V domains shown)
VH: EVQLVQSGAEVKKPGQSLKISCKASGYSLTDNWIGWVRQKPGKGLEWMGIIYPGDSDTRYSPSFQGQVTISADKSINTAYLQWSSLKASDTAIYYCVGLDWNYNPLRYWGPGTLVTVSS
VL: QSVLTQPPSVSAAPGQKVTISCSGSSSDIGSNYVSWYQQFPGTAPKLLIYDNNKRPSAIPDRFSGSKSGTSATLGITGLQTGDEADYYCGTWDSRLGIAVFGGGTQLTVLG
notes: Human IgG1 lambda purified from hetero-hybridoma supernatant; also called human monoclonal autoantibody K1-70
B7: K1-70 IgG (antibody, V domains shown)
VH: B6 VH
VL: B6 VL
modifications: N-terminus blocked; deblocked with pyroglutamate aminopeptidase for Edman sequencing
notes: Human IgG1 lambda purified from hetero-hybridoma supernatant; also called human MAb K1-70
B8: K1-70 Fab (Fab, V domains shown)
VH: B6 VH
VL: B6 VL
modifications: N-terminus blocked; deblocked with pyroglutamate aminopeptidase for Edman sequencing

Experiments:
[1] = molecular target: TSHR260-AP (fusion protein consisting of a fragment of human TSHR, amino acids 22-260, with alkaline phosphatase) (human); assay: bridging ELISA: full length TSHR on wells, TSHR260-AP in liquid phase; IgG 10 µg/mL in HBD serum
[2] = molecular target: TSHR260-AP (fusion protein consisting of a fragment of human TSHR, amino acids 22-260, with alkaline phosphatase) (human); assay: bridging ELISA: full length TSHR on wells, TSHR260-AP in liquid phase; IgG 0.5 µg/mL in HBD serum
[3] = molecular target: TSHR260-AP (fusion protein consisting of a fragment of human TSHR, amino acids 22-260, with alkaline phosphatase) (human); assay: bridging ELISA: full length TSHR on wells, TSHR260-AP in liquid phase; IgG 0.005 µg/mL in HBD serum
[4] = molecular target: TSHR260-AP (fusion protein consisting of a fragment of human TSHR, amino acids 22-260, with alkaline phosphatase) (human); assay: bridging ELISA: full length TSHR on wells, TSHR260-AP in liquid phase; IgG 0.1 µg/mL in HBD serum
[5] = molecular target: TSHR260-AP (fusion protein consisting of a fragment of human TSHR, amino acids 22-260, with alkaline phosphatase) (human); assay: bridging ELISA: full length TSHR on wells, TSHR260-AP in liquid phase; IgG 0.05 µg/mL in HBD serum
[6] = molecular target: TSHR260-AP (fusion protein consisting of a fragment of human TSHR, amino acids 22-260, with alkaline phosphatase) (human); assay: bridging ELISA: full length TSHR on wells, TSHR260-AP in liquid phase; IgG 0.01 µg/mL in HBD serum
[7] = molecular target: TSHR260-AP (fusion protein consisting of a fragment of human TSHR, amino acids 22-260, with alkaline phosphatase) (human); assay: bridging ELISA: full length TSHR on wells, TSHR260-AP in liquid phase; IgG 1 µg/mL in HBD serum
[8] = molecular target: T1, thyroid stimulating hormone receptor (TSHR), full length human (human, UniProt P16473 22-764); assay: 125I-K1-18 Fab competition, TSHR coated tubes; 30 µg/mL in HBD
T1 construct: TSHR coated on plastic tubes; also called TSH receptor
Experimental: (§1) Binding inhibition assays were carried out using TSHR coated tubes as described in WO2004/050708A2. […] After aspiration, the tubes were washed and 100 μL of ¹²⁵I-labelled protein (5×10⁴ cpm) added and incubated for 1 hour at room temperature with shaking. The tubes were then aspirated, washed and counted in a gamma counter. Inhibition of labelled protein binding was calculated as 100×[1−(cpm bound in the presence of test material/cpm bound in the presence of control material)].

[9] = molecular target: T1, thyroid stimulating hormone receptor …; assay: 125I-K1-18 Fab competition, TSHR coated tubes; 3 µg/mL in HBD
Experimental: as §1

[10] = molecular target: T1, thyroid stimulating hormone receptor …; assay: 125I-K1-18 Fab competition, TSHR coated tubes; 3 µg/mL in assay buffer
Experimental: as §1

[11] = molecular target: T1, thyroid stimulating hormone receptor …; assay: 125I-K1-18 Fab competition, TSHR coated tubes; 10 µg/mL in assay buffer
Experimental: as §1

[12] = molecular target: T1, thyroid stimulating hormone receptor …; assay: 125I-K1-18 Fab competition, TSHR coated tubes; 10 µg/mL in HBD
Experimental: as §1

[13] = molecular target: T1, thyroid stimulating hormone receptor …; assay: 125I-K1-18 Fab competition, TSHR coated tubes; 1 µg/mL in assay buffer
Experimental: as §1

[14] = molecular target: T1, thyroid stimulating hormone receptor …; assay: 125I-K1-18 Fab competition, TSHR coated tubes; 100 µg/mL in HBD
Experimental: as §1

[15] = molecular target: T1, thyroid stimulating hormone receptor …; assay: 125I-K1-18 Fab competition, TSHR coated tubes; 100 µg/mL in assay buffer
Experimental: as §1

[16] = molecular target: T1, thyroid stimulating hormone receptor …; assay: 125I-K1-18 Fab competition, TSHR coated tubes; 1 µg/mL in HBD
Experimental: as §1

[17] = molecular target: T1, thyroid stimulating hormone receptor …; assay: 125I-K1-18 Fab competition, TSHR coated tubes; 0.1 µg/mL in assay buffer
Experimental: as §1

[18] = molecular target: T1, thyroid stimulating hormone receptor …; assay: 125I-K1-18 Fab competition, TSHR coated tubes; 0.1 µg/mL in HBD
Experimental: as §1

[19] = molecular target: T1, thyroid stimulating hormone receptor …; assay: 125I-K1-18 Fab competition, TSHR coated tubes; 30 µg/mL in assay buffer
Experimental: as §1

[20] = molecular target: T2, human TSH receptor, full length, detergent-solubilised, coated on tubes or ELISA plate wells (human, UniProt P16473 22-764); assay: TSHR binding affinity (summary table; Scatchard analysis, TSHR coated tubes)
T2 construct: Full length recombinant receptor expressed in CHO cells, solubilised and coated via a C-terminal antibody; also called wild type TSHR; full length TSHR

[21] = molecular target: T3, full length human TSHR, detergent-solubilised, coated on tubes or ELISA plate wells (human, UniProt P16473 22-764); assay: Scatchard analysis, full length TSHR coated tubes (mean±SD, n=3)
T3 construct: Full length receptor expressed in CHO cells, solubilised with detergent and held on the plastic by a mouse MAb to the C-terminus; The leader 1-21 is stated for the TSHR260 construct of the same receptor; also called TSH receptor; TSHR (full length)

TSHR260 = molecular target: T4, TSHR260 (human, UniProt P16473 22-260); assay: Scatchard analysis, TSHR260 coated tubes (mean±SD, n=3)
T4 construct: Expressed in insect cells; coated on tubes or wells by way of a mouse TSHR MAb (14C4 F(ab')2 in the stability ELISA); also called TSHR fragment of amino acids 22-260

[22] = molecular target: T3, full length human TSHR, …; assay: Scatchard analysis, 125I-labelled antibody on full length TSHR coated tubes (mean±SD, n=3)

Row | Molecule | Inhibition of binding (%) [8] | Inhibition of binding (%) [9] | Inhibition of binding (%) [10] | Inhibition of binding (%) [11] | Inhibition of binding (%) [12] | Inhibition of binding (%) [13] | Inhibition of binding (%) [14] | Inhibition of binding (%) [15] | Inhibition of binding (%) [16] | Inhibition of binding (%) [17] | Inhibition of binding (%) [18] | Inhibition of binding (%) [19] | other results
1 | 9D33 IgG (mouse TSHR blocking MAb) (antibody) | – | – | – | – | – | – | – | – | – | – | – | – | Mean absorbance at 405 nm (absorbance at 405 nm) [1]: 0.481; Mean absorbance at 405 nm (absorbance at 405 nm) [2]: 0.273; Mean absorbance at 405 nm (absorbance at 405 nm) [3]: 0.006; Mean absorbance at 405 nm (absorbance at 405 nm) [4]: 0.102; Mean absorbance at 405 nm (absorbance at 405 nm) [5]: 0.056; Mean absorbance at 405 nm (absorbance at 405 nm) [6]: 0.011; Mean absorbance at 405 nm (absorbance at 405 nm) [7]: 0.329
2 | B1 | 95.7% | 94% | 93.7% | 94.8% | 94.5% | 93.3% | 96% | 94.8% | 91.9% | 78.5% | 57% | 94.5% | –
3 | B2 | – | – | – | – | – | – | – | – | – | – | – | – | Ka [20]: 7e+09 M⁻¹
4 | B3 | – | – | – | – | – | – | – | – | – | – | – | – | Ka [20]: 1.3e+09 M⁻¹
5 | B4 | – | – | – | – | – | – | – | – | – | – | – | – | Ka [21]: 1.8e+09 M⁻¹
6 | B5 | 82.6% | 82.8% | 81.1% | 83.5% | 81.6% | 81.5% | 84.8% | 86.2% | 79.2% | 62.5% | 43.9% | 84.2% | –
7 | B6 | 95.5% | 95.3% | 94.5% | 94.6% | 95.8% | 94% | 95.6% | 94.8% | 94% | 73.8% | 60.1% | 95.1% | –
8 | B7 | – | – | – | – | – | – | – | – | – | – | – | – | Ka (TSHR260): 3.1e+10 M⁻¹; Ka [22]: 3.9e+10 M⁻¹
9 | B8 | – | – | – | – | – | – | – | – | – | – | – | – | Ka (TSHR260): 9.3e+09 M⁻¹; Ka [21]: 2.3e+10 M⁻¹
